Assay results as given in patent US20240084280A1.

Molecular target: integrin alpha(IIb)beta(3) (UniProt P08514)
Assay: cell-based or functional assay

B1: trimucrin variant RR (protein)
chain: EAGEECDCGSPENPCCDAATCKLRPGAQCAEGLCCDQCRFKKKRTICRRAKGDRRDDRCTGQSADCPRNRLYG
  IC50: platelet aggregation (ADP-induced, platelet-rich plasma): 52.5 nM
